Test results: PMC10711807 (The Journal of Cell Biology, 2023)

Biological target: TOLLIP, recombinant from bacteria, biotinylated (human, UniProt Q9H0E2 1-274, biotin (biotinylated TOLLIP; site not told))
Assay: BLI

B1: GST-BLK (B lymphoid tyrosine kinase), recombinant from bacteria (enzyme)
chain: not shown
modifications: autophosphorylated as purified (Fig. S5 C); sites not told for this sample
For B1, the Kd was ~8.39 nM.
